From US20210070807A1 (MOREHOUSE SCHOOL OF MEDICINE, published 2021)

Target: mortalin (UniProt P38646 47-679)
Test: cell-based or functional assay

Sequence of mortalin (P38646 47-679 limits assumed): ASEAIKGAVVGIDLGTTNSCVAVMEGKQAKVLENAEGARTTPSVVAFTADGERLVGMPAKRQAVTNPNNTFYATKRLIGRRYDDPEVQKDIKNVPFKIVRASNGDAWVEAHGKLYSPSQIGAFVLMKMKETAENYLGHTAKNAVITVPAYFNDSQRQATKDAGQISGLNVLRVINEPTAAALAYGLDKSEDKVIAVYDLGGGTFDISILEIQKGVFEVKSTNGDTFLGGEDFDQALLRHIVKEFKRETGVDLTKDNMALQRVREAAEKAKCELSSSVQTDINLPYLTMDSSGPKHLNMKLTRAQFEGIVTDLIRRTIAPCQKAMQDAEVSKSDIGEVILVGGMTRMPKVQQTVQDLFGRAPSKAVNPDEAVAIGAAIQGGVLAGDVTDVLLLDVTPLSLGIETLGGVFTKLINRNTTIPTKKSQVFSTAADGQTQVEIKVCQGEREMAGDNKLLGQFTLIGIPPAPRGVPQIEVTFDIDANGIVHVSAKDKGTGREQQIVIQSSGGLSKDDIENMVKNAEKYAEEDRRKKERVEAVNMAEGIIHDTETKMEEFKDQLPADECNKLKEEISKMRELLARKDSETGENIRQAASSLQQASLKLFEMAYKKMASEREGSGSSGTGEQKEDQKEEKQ

Binder: VGFPVAAVGFPVGRKKRRQRRRPPQ [SMRwt-CPP peptide]
- IC50 of proliferation, MTT assay, K562 cells, 24 hours: 907 nM/mL
- IC50 of proliferation, MTT assay, MCF-7 cells, 24 hours: 180 nM/mL
- IC50 of proliferation, MTT assay, MDA-MB-231 cells, 24 hours: 476 nM/mL
